For the assay, the target named is biotinylated histone H3K27me3 (21-44) peptide (UniProt P68431). Kind of assay: ELISA.

On to “Pcαα fusion protein (tandem human CBX8 PCDs, mCherry, VP64) (from UniProt Q9HC52 1-62; Q9HC52 1-62) (designed binder)”, for which the HRP ELISA signal:background ratio (H3K27me3 over unmodified H3) came out at 6.

Source of the values: publication PMC6370554.
